Laboratory results taken from article PMC3817697, “Building a pseudo-atomic model of the anaphase-promoting complex” (Acta Crystallographica Section D: Biological Crystallography, 2013).

B1: Cdc16 (Cut9) subunit of recombinant S. pombe APC/C (natural protein, UniProt P41889 1-671, looked up)
chain: MVVKRTQTDSRMQSTPGNHNHPDAHANAAYMTPPSMGALNANNSNSQLSTLTISPMTYLANNTSTDGSFLKERNAQNTDSLSREDYLRLWRHDALMQQQYKCAAFVGEKVLDITGNPNDAFWLAQVYCCTGDYARAKCLLTKEDLYNRSSACRYLAAFCLVKLYDWQGALNLLGETNPFRKDEKNANKLLMQDGGIKLEASMCYLRGQVYTNLSNFDRAKECYKEALMVDAKCYEAFDQLVSNHLLTADEEWDLVLKLNYSTYSKEDAAFLRSLYMLKLNKTSHEDELRRAEDYLSSINGLEKSSDLLLCKADTLFVRSRFIDVLAITTKILEIDPYNLDVYPLHLASLHESGEKNKLYLISNDLVDRHPEKAVTWLAVGIYYLCVNKISEARRYFSKSSTMDPQFGPAWIGFAHSFAIEGEHDQAISAYTTAARLFQGTHLPYLFLGMQHMQLGNILLANEYLQSSYALFQYDPLLLNELGVVAFNKSDMQTAINHFQNALLLVKKTQSNEKPWAATWANLGHAYRKLKMYDAAIDALNQGLLLSTNDANVHTAIALVYLHKKIPGLAITHLHESLAISPNEIMASDLLKRALEENSLTSGFLNSKYVFEDEVSEYMQQSNLNTSDKSMSMEDQSGKVTESVNDRTQVLYADSRSEMMMDDIEGNVSEQR
notes: Cdc16 (S. pombe name Cut9; human Apc6), TPR subunit of the S. pombe anaphase-promoting complex; Subunit within the recombinant S. pombe APC/C used for cryo-EM; the insect-cell MultiBac system is described only for the budding-yeast APC/C; also called Apc6; source: recombinant S. pombe APC/C
B2: Cdc27 (Nuc2) subunit of recombinant S. pombe APC/C (natural protein, UniProt P10505 1-665, looked up)
chain: MTDRLKCLIWYCIDNQNYDNSIFYSERLHAIEDSNESLYLLAYSHFLNLDYNIVYDLLDRVISHVPCTYLFARTSLILGRYKQGISAVEACRSNWRSIQPNINDSISSRGHPDASCMLDVLGTMYKKAGFLKKATDCFVEAVSINPYNFSAFQNLTAIGVPLDANNVFVIPPYLTAMKGFEKSQTNATASVPEPSFLKKSKESSSSSNKFSVSESIANSYSNSSISAFTKWFDRVDASELPGSEKERHQSLKLQSQSQTSKNLLAFNDAQKADSNNRDTSLKSHFVEPRTQALRPGARLTYKLREARSSKRGESTPQSFREEDNNLMELLKLFGKGVYLLAQYKLREALNCFQSLPIEQQNTPFVLAKLGITYFELVDYEKSEEVFQKLRDLSPSRVKDMEVFSTALWHLQKSVPLSYLAHETLETNPYSPESWCILANCFSLQREHSQALKCINRAIQLDPTFEYAYTLQGHEHSANEEYEKSKTSFRKAIRVNVRHYNAWYGLGMVYLKTGRNDQADFHFQRAAEINPNNSVLITCIGMIYERCKDYKKALDFYDRACKLDEKSSLARFKKAKVLILLHDHDKALVELEQLKAIAPDEANVHFLLGKIFKQMRKKNLALKHFTIAWNLDGKATHIIKESIENLDIPEENLLTETGEIYRNLET
notes: Cdc27 (S. pombe name Nuc2; human Apc3), TPR subunit of the S. pombe anaphase-promoting complex; Subunit within the recombinant S. pombe APC/C used for cryo-EM; also called Apc3; source: recombinant S. pombe APC/C
B3: Cdc23 (Cut23) subunit of recombinant S. pombe APC/C (natural protein, UniProt O94556 1-565, looked up)
chain: MTVSLNTMMGVDGLEDQEQLREIRNCLLKCISECSERGLVYAVRWAAEMLNGMNPIEMEHIPFSSTPTGEFDLDPDMANEKLLEVEEKNIYLLAKSYFDCKEFERAAYTLQNCKSSKSIFLRLYSKYLAGEKKSEEENETLLNTNLTLSSTNREFYYISEVLESLHYQGNKDPYLLYLSGVVYRKRKQDSKAIDFLKSCVLKAPFFWSAWLELSLSIDSLETLTTVVSQLPSTHIMTKIFYVYASHELHQVNSSAYEKLAEAEIIFPNSRYLKTQRALLTYDSRDFDEAESLFENILTNDPYRLDDMDTYSNVLFVLENKSKLGFLAQVASSIDKFRPETCSIIGNYYSLLSEHEKAVTYFKRALQLNRNYLSAWTLMGHEYVELKNTHAAIESYRLAVDVNRKDYRAWYGLGQTYEVLDMHFYALYYFQRATALRPYDQRMWQALGNCYEKIDRPQEAIKSYKRALLGSQTNSSILVRLGNLYEELQDLNSAASMYKQCIKTEETEISPETIKARIWLARWELGKKNYREAELYLSEVLNGDLELEEAKALLRELRSRMEHSYD
notes: Cdc23 (S. pombe name Cut23; human Apc8), TPR subunit of the S. pombe anaphase-promoting complex; Subunit within the recombinant S. pombe APC/C used for cryo-EM; also called Apc8; source: recombinant S. pombe APC/C
B4: Cdc26 (Hcn1) subunit of recombinant S. pombe APC/C (natural protein, UniProt O13916 1-80, looked up)
chain: MLRRNPTAIQITAEDVLAYDEEKLRQTLDSESTTEEALQKNEESTRLSPEKKKIIRERRIGITQIFDSSMHPSQGGAAQS
notes: Cdc26 (S. pombe name Hcn1), TPR accessory subunit of the S. pombe anaphase-promoting complex; Subunit within the recombinant S. pombe APC/C used for cryo-EM; source: recombinant S. pombe APC/C

Molecular target: the molecule itself
Test: cryo-EM structure; recombinant S. pombe APC/C, single-particle cryo-EM, about 12 Å, still being refined; atomic models of subunits docked into the density and refined as rigid bodies with URO
Details: not given

Binding result, binds:
B1
B2
B3

What follows are binders tested against B1 in the same assay as above. Details: both partners purified.

Binding result, binds:
B2
B3
B4
